Test results taken from the DeepSol protein solubility set.

Experiment: soluble on expression in E. coli; label from the status in PepcDB or PDB records

Sequence	soluble on expression in E. coli
MGSDKIHHHHHHMENTSYIALSRQTALWRQLDVVSNNLANMNTNGYQAEQTLFSEYLMNTRDSHFRLPEKLAYTQDAGTYRDLTAGPLEHTGNPLDLAINGEGYFEVEDGAGPAYTRGGRFTLDAEGKVVTADGRPLMTDAGTPLVIAPNEGEVTISATGTVSTENGPVGKLRLVSFEDEQKLRRIGGGLFDSGDQQANPITEPRIEQGMIEKSNVNPVVEMTRMIQVQRSYEAANKLIESENDRQLNAYAVLSGTK	not soluble
MGSDKIHHHHHHMENVPLLQVNKMSKAFSNQLVLKEVNLQVERGDIYALVGGNGAGKSTLMKILTGLYSYDDGEMYVKGTKQQFANPSEAHRKGIYLIPQEPLIFPHMTIEENICIGLTEKKKKLRVQIEQLINSLGWDIDLNELGGSLSIAQQQLVEIVRGLIREAEILILDEPTSTLTTHEIKSLFVLMKSLQEKGIGMIYITHRFPEIFEIANKVAILRDGMIVSQGDVCDYTYDMLMEGLLPKGYKQKEKIEVVQETARTKKILEVIDITSHAFKNISFTVHADEIVGVAGIIGSGRTELAEAIFGLKTIKSGSILLEGKSIDACSLHKRLEKGLVYVPEDRARNGIFSIASVKENIAAASLQQNNRFFINQEKESALVNSFIEQFRIVVQNMNEELVSLSGGNQQKVVLAKYLACNPKIIILDEPTRGIDAKARIEVYETIEKMKREGLAILLISSDVEEIVQLANRVYVMRNGRFVSYMEKEQLSVNEVTRLAYGGVAE	not soluble
MGSDKIHHHHHHMEPAELLKKIHQLPRLPKAVSELLEAVNNDQISIKDIAAKVSQDPLMSARVLRLANSSYFGANRKVASIDAAVVRLGMQTLRNLVIASAVVGAVPKAEGVDLGGFWGATFEVALYSQELAKHTHIPPEEAFTCGILHNIGDLFIATAAPDAAKAIDKAVMAGADKQETELKILDFDAATIGALLAQSWRFTDKLAAGIANQYQPKEAELYSDLAGLMYMAKALFSGWDEIEDDAITGWLSVQAMNAGLEMDMSDLAADLLKVKGSGLEMGQLLA	not soluble
MGSDKIHHHHHHMEQDTSMITWHHSPAHLFVPNAFYIVTASTLCHQPLFNSPQKLHILQSTLFEIMQAYNWRLQAWAVFSNHYHFIAQSPEDSSSLKPLIQRFHSQTARAINVLDGSKGRKVWFQYWDTCLTYEQSYLARLNYVHNNPVKHGASRECRAVSLLFSYMV	not soluble
MGSDKIHHHHHHMEQLQKRKIYDTTASNASTGILNGKSSNVLNWDDVRFSWAYPLYKNMLANFWTPFEINMSHDAKQFPTLTETEQEAFKKIIGLLAFLDSVQTDYSMRAAEYLTDSSLAALMSVLSFQEVVHNQSYSYVLSSLVPKATQDEIFEYWKHDDVLKERNEFIIDGYEKFVDNPTPKTFLESIVYDVILEGLNFYSGFAFFYNLARNQKMVSTSTMINYINRDEQLHVYLFTNIFKELLVEFPELNTEETKTFVKTTLMKAADLEKDWFRYIIGDKIPGINPEDMETYISFIANKRAVQLGMEKPYPEIKHNPMKWIRAYEDVNSGKSDFFEQKSRQYAKVSADNGFDEL	not soluble
MGSDKIHHHHHHMEREKVELFKEVLKKLHKGEDVESLKKQFGELLSQIPPFEIPVIEQELLKSGEIDVRDIIKMCDLHVEFFRGAVSEAGREIEKLPNGHPLRTLYEENKQILKDAEALSLLASSMFSLPKDDPRRKQFYEKLVQHVSELHRIGLTHYTREEMLIFPYIERRGITAVPTVLWSKHDETRLKIRLLLNLLKKEESDERLKEEALELSRMLSDMVFRENNILYPTLKVLLTEGEWKAIKMLEKDIGYYKIEVTEEWETPEKPLLPHRNCLRRPIPFRGLGGSRHVYHLQIQ	not soluble
MGSDKIHHHHHHMETLILTQEEVESLISMDEAMNAVEEAFRLYALGKAQMPPKVYLEFEKGDLRAMPAHLMGYAGLKWVNSHPGNPDKGLPTVMALMILNSPETGFPLAVMDATYTTSLRTGAAGGIAAKYLARKNSSVFGFIGCGTQAYFQLEALRRVFDIGEVKAYDVREKAAKKFVSYCEDRGISASVQPAEEASRCDVLVTTTPSRKPVVKAEWVEEGTHINAIGADGPGKQELDVEILKKAKIVVDDLEQAKHGGEINVAVSKGVIGVEDVHATIGEVIAGLKDGRESDEEITIFDSTGLAIQDVAVAKVVYENALSKNVGSKIKFFRI	soluble
MGSDKIHHHHHHMETREAIFGRRSIRKYLDKPIEPEVLQDILEGAVMAPSAVNNQPWYFLAIKSQEQMEKLRGIFQEVSVKTKAVLEKRFPNNPEVVSETLGFLTSLGNARVCVLVFLLKPSKDYDIIAVESTSAAIQNLCLVAYDKGIGSCWMTAPLSTGFGDVLEKTFAPGKGKFIAAVTLGYPAVSPQAPKRKAGRYEII	not soluble
MGSDKIHHHHHHMETVQYDYKQILQRIVAEIKSSRIQVARKITSATMELYWNIGKELSAQHLSKGYGAQVVEMLASDLQKEFPGTTGFSSRNLWEMKRFYERYCGESRKLQQSVAVLPWGHNLLLMSKCKNPEEIYFYATRSTELGWTRDVLLNYIKADAFSTREEQPKLHNFKETLPECLQEQAEEMLKSRYNLEFLGITKPILELELERRLVDKIKTFLLEMGKGFSFIGNQYRLVLEDKEYFVDMLFFNRCTRSLIALELKIGSFQPEYVGKMNFYLNLLDRQVKMPDENPSIGIILCADRNNVEVEVALQGSTAPIGVSEYSYLIPQKQIKELINNELSGNKE	not soluble
MGSDKIHHHHHHMEVTRTDKAVTLRWENEEVSEGTLVFVSSSPSLEANSEPVFKVSNAAKHYTFETKDIPVYFFLQAPNGDKRVVSERILPLESVFNFRDMGGYKTKHGHHVKWGKLYRSSNLVNINQADAALLQKLHIKWICDLRSSSEVQAQPTPEIQGVLNKHIPIGTAKNEKTTLPVSNDKAIYEPLMGESYRVFVQSVDGFKEIFSEILTDAKAGLPFVFHCTAGKDRTGVLAALLLTLLDVPEKTIFDDYAITNRYQDNILQEMGGIVSLFSNGNEKIDLEAFRPMAEARPEYLKIAFDEMKKQFGSVDGYLEKGIGITAEEKAIIQQQLLE	not soluble
MGSDKIHHHHHHMEWQAEQAYNHLPPLPLDSKLAELAETLPILKACIPARAALAELKQAGELLPNQGLLINLLPLLEAQGSSEIENIVTTTDKLFQYAQEDSQADPMTKEALRYRTALYQCFTQLSNRPLCVTTALEICSTIKSVQMDVRKVPGTSLTNQATGEVIYTPPAGESVIRDLLSNWEAFLHNQDDVDPLIKMAMAHYQFEAIHPFIDGNGRTGRVLNILYLIDQQLLSAPILYLSRYIVAHKQDYYRLLLNVTTQQEWQPWIIFILNAVEQTAKWTTHKIAAARELIAHTTEYVRQQLPKIYSHELVQVIFEQPYCRIQNLVESGLAKRQTASVYLKQLCDIGVLEEVQSGKEKLFVHPKFVTLMTKDSNQFSRYAL	not soluble
MGSDKIHHHHHHMFDFKELEAFVWVVRLGSFRKGAAKLYLTQPSISDRITRLEDSVGESLLDRSARPVQPTLRGREFFTYAERLLEGREEAMRLFQDEESFSGTLRLGVIETIASSWCPTFMRRLAERYPQLTIELTVDISPFLHQRLAENDLDMLFAMDGVAPGLCAIQTPLCTYEMGMFAAPEMAATLQRGGPAAFAETAFISFSKQARPYRELVAYLTALGIDTPRIHRTSTLMTIMRMSIEGVGIGVLPVATVRDAVESGSLVRLTLEEPLPPMIYDAIWRSANYPSFCASVARLAKQCATDYAQDHGKLSSPASMKGYVDT	not soluble
MGSDKIHHHHHHMFDPETLRTFIAVAETGSFSKAAERLCKTTATISYRIKLLEENTGVALFFRTTRSVTLTAAGEHLLSQARDWLSWLESMPSELQQVNDGVERQVNIVINNLLYNPQAVAQLLAWLNERYPFTQFHISRQIYMGVWDSLLYEGFSLAIGVTGTEALANTFSLDPLGSVQWRFVMAADHPLANVEEPLTEAQLRRFPAVNIEDSARTLTKRVAWRLPGQKEIIVPDMETKIAAHLAGVGIGFLPKSLCQSMIDNQQLVSRVIPTMRPPSPLSLAWRKFGSGKAVEDIVTLFTQRRPEISGFLEIFGNPRS	not soluble
MGSDKIHHHHHHMFEKRHRITLLFNANKAYDRQVVEGVGEYLQASQLEWDIFIEEDFRARIENIKEWLGDGVIADYDDPEIEKLLADVHVPIVGVGGSYHQPEQYPPVHYIATDNAALVESAFLHLKEKGVHRFAFYGLPASSGKRWAVEREYAFCQLVAKEKYRGVVYQGLETAPENWQHAQNRLADWLQTLPPQTGIIAVTDARARHVLQACELLHIPVPEKLCVIGIDNEELTRYLSRVALSSVAQGTRQMGYQAAKLLHRLLNNEALPLQRQLIPPMRVVERRSTDYRSLNDPSVIQAMHYIRNNACKGIKVEQVLDAVGISRSNLEKRFKEEVGETIHTVIHSEKLEKARSLLVSTSLSINEISQMCGYPSLQYFYSVFKKEYDVTPKEYRDRHSEVML	not soluble
MGSDKIHHHHHHMFGPGGTQIPNPLRLKRPEGELVWAHATTQERLLGLCDVGCRLKMMRPDLSVMLTWEEDMRPAKLPEGCDIPLGPLTVEQPNDIRNFLDNWSPDVCVWAGGRLRRLLMRHMREREMPALLCDIDADELPSRASRWLPDQRHRLLNGFAAILVPGTEVSERLKRAGVAPERIHPAGRLFQSSTPPSCNDDELAQMQKQFASRPLWLAAHVSLSELPAVLKAHRGALRLLHRLLLVLTVDTFEDLDAARSLLRKEGLSFADWDMGEDPEDHTQVAIGLTENLGLWYRLCPISFLGNSLIRGAQGTNPLDAAALGSAILHGPGVVAHAQAYQRLAALDAAERIHGEEELADAVFRLSSPDRAAEMALAGWQVVTEGAVMTDTLLERIQDLLDQSELSHAPA	not soluble
MGSDKIHHHHHHMFKETLRECMEGHTLAERKAEQVMDAIMKGEATASQIASLLTVLRFRGETVAEMTGFARAMRRHSIQIEHSFSQVVDTCGTGGDDVGTFNISTATALLVSALGVPVAKHGNRAVSSKSGSADVLEALQIPIQSSPEEATASLQKHNMCFMFAPLYHVAMKHAVAPRKEIGFRTIFNLLGPLTNPARAEHQLIGVYDRNFAEKMAETLRRLGTKHSLLVAGHGGLDELSITGPSTVFEVKGDAIDRYELIPEDVGLERGDLAQIQVSTVQESATLIDQVLIGKANKSAQQIVLLNAGAALYAADRVDSIKAGVALAKEGIASGHVADHVRNLRQTDQEAEQHA	not soluble
MGSDKIHHHHHHMFKLVSEFEPTGDQPQAIEKLVEGLNRGMRFQTLLGVTGSGKTFTMANVIARVNRPALVISPNKTLAAQLYQEFKTFFPENRVEFFISYYDYYQPEAYIPTKDLYIEKNADINDVIVRMRMSTLKSVRTRRDVVVVASVSCIYATGDPNDFDRMNINLAVGDRIDVLELAERLARIGYQRTEDVSLSGCFRLKGDTVEIYPTYQDEGIRIEFFGDEVDSITLIDRFNRTTLEHLDKIIIYPAVEFITTEEKLKRAVESIREELNERLSELKKQGKILEYERLKQRTLNDIELLETMGYCPGIENYSRHFDGRKPGEPPYTLLDYFDKDFIVFIDESHITVPQLRAMYNGDRSRKKNLVEYGFRLPSAYDNRPLTFEEFLKKTGQIIFVSATPGDFELSISEQVVEQIIRPTGLVDPEVEVRPTAGQVDDLVNEIVKVKERGERALVTVLTKKTAELLSEHLTELGIRSLYLHSELDAIERVEVLKKLRRGDVDVVVGVNLLREGLDLPEVSLVAIMDADVEGFLRSETTLIQIIGRTARNVNGKVIMYADRITNAMKRAIEETNRRRRIQLEYNRKHGITPRSVIKPLEIEVFEQFMVKEEPERYGDTVKNIFEMKKTLSPEEYMAVLEEEMYRAASELRYEDAAALRDELFRIREEIKKKKGL	not soluble
MGSDKIHHHHHHMFKNTFQSGFLSILYSIGSKPLQIWDKKVRNGHIKRITDNDIQSLVLEIEGTNVSTTYITCPADPKKTLGIKLPFLVMIIKNLKKYFTFEVQVLDDKNVRRRFRASNYQSTTRVKPFICTMPMRLDDGWNQIQFNLLDFTRRAYGTNYIETLRVQIHANCRIRRVYFSDRLYSEDELPAEFKLYLPVQNKAKQ	not soluble
